According to patent publication US20150099705A1:

Molecular target: human Nav1.7 (sodium channel protein type 9 subunit alpha) (human) (UniProt Q15858)
Assay: cell-based or functional assay

wild type Protoxin-II (peptide) gave an IC50, FLIPR assay of 4 nM.
